# Measured values reported in the domain aggregation screens of Martell et al. (2025).
# Experiment: soluble fraction after stress (log2 fold change); higher = more stays soluble; pooled small domains, quantitative proteomics
# Conditions: stress: 50 degC
# How it was run: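 Quantitative proteomics served as the high-throughput read-out for pooled custom libraries of small protein domains. Each was stressed at 50°C. Aggregation propensity is expressed as the base-two log fold change in soluble protein after stress. A higher value means a larger share of the protein remains in solution.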
row,Sequence,soluble fraction (log2)
1,HMKDLQHLVGEKGTTVTPLRPSGIALIKGSRYDVVSEGSFIQQGVAVEVIKVEGRRVVVSPLQED,-0.16
2,HMKDLSMPDVMGSSLNDAKKALTELGIMDITVRYVESGSSEGSIVGMEPPAGSKFAADGKVVLQVSSGS,0.351
3,HMKDMKISTQNILKELATNYPDQTAFRKNVIESTAKSMGYTGKDFYPMLTAETRVKIGTYDLSALLQTV,-0.178
4,HMKDPSFELMSVAESFYRSGNVDHAVYALEKYLEVYADGDYTDRAHDLLSQARKGLTYPHGYPPLQI,-1.21
5,HMKDRDISNAVLNILSKDSDHNYNYKQIASVLGVKDPFVRKRIVSVLAQLTKNGQLEEISRGKYQIKN,-0.618
6,HMKDRNISSSVLEILSKDPDHTYNYKQIAALLGVKDAFIRKRIVTLLAQLAKDGHLDEISRGKYQIK,-1.02
7,HMKDVVAPMSGRVVRLMVAAGDEVVKRQALVVVEAMKMENVLTAPKEGRIKKVPVREGMTVEVGQTLVSFE,-0.221
8,HMKDYKSALQELIQSGDKRVISYHTLKETGPSHNREFEAAVKLDGNIILGVGKGKTKKEAEQNAAHEALKK,0.172
9,HMKDYKSSLQERVQAVGGGQLIYRVNREEGPDHSKTFYMDLFLGDRLIGTGSGRNKKQAEQQAAKEAIERG,0.0941
10,HMKDYKTIFQELIQKKHKTSPIYKSYEYNDMFKAEVYVNDKSFADGIGKSKKEAETDAAKKALEKIEMA,0.0966
11,HMKDYQGEISVVASGERIDVYLFNYFNLFSRTKIKNHIKNGNILVNENIISPSYILKQNDKIAFNLGAPY,-2.39
12,HMKDYQGNILIQSEGDRIDKFLFKYFNSFSRTKIKNHIINGNILVNDKNTIPAYVLKINDKISYDLSTSVK,-1.04
13,HMKEAITVIGGKNNITFDASAQAEIGIYSMDGVQIQKKTISDNERIDLPAGMYVVTVKTGQANVSKVVVV,0.00681
14,HMKEDSTIIERIISNLSSASLKTQKAFEYKLTDLMFRFSEGEYEWSSAMEVIREELLPFLNK,0.0862
15,HMKEETEMVTIPDVTGKPLTEAANLLREAKLDYLAESTGTSVTKQMPLPGAEVMVNTTVLLYTG,0.156
16,HMKEEVMVPNVVGKELSAALLEMQVKELYPKLQLKYSNFVDDKGTVLEQSPPAGSIVKAGRRINLVVSRGA,0.144
17,HMKEIKAPNKINAHLIEEWRSQHPTELFPEEKVDLIYYKGEEYYFVIEEKNELGEIEEWYFAYDGGIDYV,0.106
18,HMKEILTNESIIQFVKDKVSEEQIIYKINNSPIDFKLDVNSMVSLAKQNVSSTIIIAMENAMNN,-0.256
19,HMKELLQEMIMDILRAIASPNIDIKRKTLDLVLDLITPRNIDNVTGMLKTEVVKSQSENTSDVG,-0.623
20,HMKELTYSDFRKAYPDIQGNLFGMAERYITALDWTEVAAKVETDEELRKERDIFYLVKTYIRKYVQ,-0.487
21,HMKELVAGQTVRVHHSIGFGQTGTVTALNSLKTTLPNGLRTNTASILFQNNEKVVLPISNFDIIES,-0.139
22,HMKELVEDFASRISNARQSKGWNQSELAKRMAETVNVVKSAESGKSPTDSVIKKLERVLGIILM,-0.591
23,HMKEQLITVYVSGAVARPGLYELPAGIRAQEAVEAAGGFTEAANHEKVNLAKKLKDGSQVNVPALK,-0.0032

row,Sequence,soluble fraction (log2)
1,HMKEQYDLNDREQQFISLVANGLNNKEIAETLFLSEGTVRNYLSNLLDKLGLRDRTQLAIFFYQHL,-0.953
2,HMKERLLDPYKDFIVNYLQKYPYTPAAVMHDKLKESYPDFPKVDPKTIYNFVMLLRRDFNIPKV,-0.306
3,HMKETERKILQAVLGLPLKYRDVIHLFYYEEMSVKEIAEVLHRQESTVTSQLTRARGILKKNL,0.09
4,HMKETLSDTVSRKLEDMITTQMKAGNRLPTEMVLAEMYSVGRSTIRESLKALSSKGLIVRKKDGTFVSDRV,-0.109
5,HMKEVKAPMPGMVLRVEVAPGQEVQEGDPLLVLEAMKMENNLKSPASGTIKSVHVEAGKAVEKGAVLVVF,-0.0671
6,HMKEVKRDQVIEAARKLFHQFGFKKVSMDEIAKEAGVTKKTIYMYFESKEELLKYFIQEEISN,-0.224
7,HMKEVVKVTITPSEKLKSQYPDALVSIDGKFYDLGILNNPVEFYMDKDHKISIIWSTAELVESFRI,-0.00922
8,HMKEYRKEGHLYFVTEDRNNEIYLWDFTDKPKHEFKEIITSVELQKVAKEGAMLQYKNGKYELYS,-0.171
9,HMKFDVNAAIRAVLNVTVDKGATLERIMKETNLTSDQLVLPIALLMKTERLHFKRSGTHEVYVSVGKAPDK,-3.02
10,HMKFGEQIKERRQELDLTQAEVAEKLFVTRQAVSNWEHNKTYPDLNMLVKISNVYQISLDSLLR,-1.23
11,HMKFHENLIALRRREGWSQEELGNRIGVTRQTVSKWELGLTTPELEKLVQLADVFGMTTDQLVGR,-0.146
12,HMKFNLWLSEKLKKLGLTQRKLAEQAGVSPATVSRWLSGEFEPDLTNLRKINQVLGVPERELFLQLGL,0.154
13,HMKFPNVGENLRLLRQEMGISLDKASKMTGVSKAMLGQIERGESSPTVSTLWKISSGFKINFTTLLSE,-2.38
14,HMKFPPASDIRRMRKAIDVTQTELAKQSGVSQSTIAKIERGRISASYDTVVKLFETLDEMAK,-0.141
15,HMKFTPPTLEQIKNEMLLKTDEYNADIQSDRFFTYYDSNGWMVGKNKMKKFLVSLVAVFAATSA,-0.446
16,HMKFYIHEIIGFNAVDKVAGIVGKVININEDSPQKKLVVNYNGKEVFIPLVDEIVRKIDKQKNEVLITMP,0.155
17,HMKGEIEELLYEEVTKDNNTTFLRIYIKLNDEYNTLLNLGIIGIKTEEKVNELVNLGYKKVL,-2.45
18,HMKGISRVTMELIIDALKKETEPRTVQWIAEKTGLATQTTYRYLQYMVSEQTVEALNVYGKVVSLKAK,-0.314
19,HMKGKWKPIILWQLSKAPQSLSGLRHSIAGISQKMLIQHLNELIHFGFVVRTTFEGYPLKVEYDLTDRGR,-0.231
20,HMKGLDAAVVDLFKSKGASIVFAGNRLSLSGEVADQATKDELLAKAKAILASLGASVSLDDKLMVKGAKAS,0.0298
21,HMKGMIKVASMSLGADLGLYSRHLKYLGIVHRVVEESGGQSVYIQKLNDLHTAKESLELYLKNELKI,-1.19
22,HMKGQNRSEITAGARVKVVQKQDQRTGALTEGIVRDILTRSPHHPHGIKVRLESGIVGRVKDVL,0.0363
23,HMKGSIMIETILKELKKNNKGFNFLLEKFDISEDELMKIINDLIHDKKVFLNSNNKYEIVSD,-0.238

row,Sequence,soluble fraction (log2)
1,HMKGTVLAPGIILNADDQRFTYLQEDVASVAKDGAAIVLKQGDEVDFIADGQTAKQIYLTKT,0.0649
2,HMKGVPGIGDYVKLSGGSTVGKVLSISGKKAEVAFGLLRTTTELSKLEKVRKPKELLQSGVSS,0.269
3,HMKGVTVDGDNITVDGEKQTLISVNKNLDGDVVSYTYRTADGKLRTSRNVEVAQEINKQQLLKSIDAQ,0.0821
4,HMKGWPDREQAEKIWQQGIDYAIEHHTMSPQIVKEYIFHTQGIARSAALIAARLPDMDTEKAYVLGLLHD,-0.214
5,HMKIAEALNLRGDADSYERQEAIWLLEHIVGMSALELKYRGEQDLTEDQLQQYRSGLQRLEQGEPLAYVIG,-0.396
6,HMKIDLKQIEGVLDELAKVKGSLITILQKTQETYGYLPKEAIIYISERTGIAESEIMGVATFYTQFRL,-0.105
7,HMKIDLTPQEEKIYSVLETELTLDEIIMKTSIKAGEALAILMDLELKKLVASVAGGKYRRKA,0.0271
8,HMKIEETLGKTAQVYIPIPQYLSGIGKVTLSVRGSLRELDAMTEEEKIPSNTIVRIVKVQDQVLFVKRA,-0.74
9,HMKIHNSIREITDFDRKQNSNIPSDAKYRIVFYTPQGNKTIIPEELQGLQYYRSKELAEIALNKKLNSN,-0.132
10,HMKILKQLEAIIEKEGLNESAKQFYLREISELDKEKQQEIINLVDKMEQAGFKNNLASAFSEVTEDIPQF,-0.0195
11,HMKILNYQSLVGKKGITKSMLRPAGIVEIEGRRYDVVTRGEFIEPGKMITVDEVQGNRIIVQIERE,-0.165
12,HMKIPIIYQPLKNAKRIKIYIPYELKELRTIFKKINTTFWHPNQKLWSIIYTQENVALIKNLFGKNYKIVN,-0.547
13,HMKIQEVDYSTFLNMLNEKSIAQVEIQDNQIAFNSNQEGNKQIYVTGRIEEDTELVNRLQAAGVQFSRV,0.079
14,HMKIRIIKTASNAKAVQIVSYKNNKRIVLQHIGSAHTDETLNDLKILAEEWIKDYNHQLSIF,-2.49
15,HMKISDLPAAQVYREIVHAWPKAAAYADLAPINNGGMQRWRDVVHEWVLRGYNPANLRGMLEWYKAGIPTR,-0.398
16,HMKISDMIETNLKFLRGKHSISQAELAESLGIPRTTLSAYERGFVEPNIELMLKMAKYFNVSLDDLIAYN,-1.88
17,HMKISQSRKAGKLVLESELKRGGVSLDQYRGGRMSRILELIGVKSLNELLTDLGTGKKTGALVAERFFSGL,-0.444
18,HMKITFNPVSSGRLDIILAEKTGYTRSYVKQLVEKQAVTINGEAAKKSGQNVKAGDEIALDEP,0.0957
19,HMKITIDSVERDETFRLIWGTGWKPKNKIQELAAIQAKKNGLGRMNEVAGLAAWRGIWQQVAEQVAQEVL,-1.04
20,HMKITKIWFTADHIFGRDEEGKEYSQSLLWYPKLSAASDEERSQYTFGYDGIHWRSLDEDISFESF,-3.98
21,HMKIVFGHVKWFDIDKGFGFLVLEDEGGDVLLHANVLKNFGRTSVSEDTKIEFEFLETDKGRQVSTIYNIL,-3.85
22,HMKIVQDIAFSDFLNEVEKDNVLDVNIKGDLINGNLADGRKFKTYTPYDPNLIEKLSNKNVTINVEPYN,0.198
23,HMKKAENEKLNIPYDVTEFLASSIKDDIRMMEGAMVKLLALSSLTKQDITQSLAKRVIQDVLGSSA,-0.097
